Measurements as given in the supplement of paper PMC7877785.
± gives the uncertainty stated by the source.

Assay: self-splicing fitness, log relative to wild type (ln ratio); higher = more splicing; Tetrahymena group I intron in knt gene, E. coli kanamycin selection, DiMSum; sequences stand for … in CUCUCU…GGAGGGAAAAGUUAUCAGGCAUGCACCUGGUAGCUAGUCUUUAAACCAAUAGAUUGCAUCGGUUUAAAAGGCAAGACCGUCAAAUUGCGGGAAAGGGGUCAACAGCCGUUCAGUACCAAGUCUCAGGGGAAACUUUGAGAUGGCCUUGCAAAGGGUAUGGUAAUAAGCUGACGGACAUGGUCCUAACCACGCAGCCAAGUCCUAAGUCAACAGAUCUUCUGUUGAUAUGGAUGCAGUUCACAGACUAAAUGUCGGUCGGGGAAGAUGUAUUCUUCUCAUAAGAUAUAGUCGGACCUCUCCUUAAUGGGAGCUAGCGGAUGAAGUGAUGCAACACUGGAGCCGCUGGGAACUAAUUUGUAUGCGAAAGUAUAUUGAUUAGUUUUGGAGUACUCGUGGUCG
Summary of the method: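 The eight P1ex-region nucleotides of an intron in the knt kanamycin-resistance gene on pET-22b(+) were all randomised and the library put into E. coli BL21(DE3). Six replicate transformations were grown overnight at 37°C or 30°C on LB agar with or without 25 μg/mL kanamycin, together with 100 μg/mL carbenicillin, 50 μM IPTG and 0.2% rhamnose. Colonies were pooled and amplicon-sequenced on an Illumina HiSeq 2500. Fitness from DiMSum is the error-weighted combination of wild-type-normalised replicate fold changes, kanamycin over none.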

| Sequence | self-splicing fitness (ln) (30 °C) | self-splicing fitness (ln) (37 °C) |
| --- | --- | --- |
| GCAAAGCAAUAUUACGAGUG | -2.57 ± 0.097 | -0.371 ± 0.092 |
| AUCAAGCAAUAUUACGAGAC | -3.01 ± 0.3 | -1.87 ± 0.19 |
| AUGAAGCAAUAUUACGAUCG | 0.0492 ± 0.071 | 0.821 ± 0.11 |
| UAUUAGCAAUAUUACGUGUA | -1.21 ± 0.16 | -0.828 ± 0.16 |
| GAUAAGCAAUAUUACGACGG | -2.96 ± 0.17 | -2.34 ± 0.27 |
| GUAGAGCAAUAUUACGUAUU | -2.43 ± 0.12 | -1.42 ± 0.13 |
| CCUAAGCAAUAUUACGCUCU | -2.4 ± 0.14 | -2.94 ± 0.3 |
| ACUAAGCAAUAUUACGUUCA | -1.29 ± 0.1 | -0.98 ± 0.098 |
| CCUGAGCAAUAUUACGAUAU | -4.45 ± 0.37 | -2.39 ± 0.23 |
| UUGGAGCAAUAUUACGGGGG | -2.12 ± 0.39 | -2.14 ± 0.5 |
| CCGCAGCAAUAUUACGAACA | -2.19 ± 0.27 | – |
| ACGCAGCAAUAUUACGGCAA | -0.804 ± 0.078 | -0.421 ± 0.084 |
| ACGAAGCAAUAUUACGAAAU | -3.34 ± 0.2 | -1.5 ± 0.17 |
| CUUCAGCAAUAUUACGAUCU | -2.86 ± 0.39 | -2.88 ± 0.35 |
| GCUGAGCAAUAUUACGACGC | – | -1.7 ± 0.42 |
| CGUUAGCAAUAUUACGACCA | -0.453 ± 0.17 | -0.925 ± 0.2 |
| CAGUAGCAAUAUUACGGGCG | -0.256 ± 0.089 | 0.0762 ± 0.098 |
| GUAUAGCAAUAUUACGUAAG | -1.48 ± 0.13 | -0.567 ± 0.14 |
| AUCAAGCAAUAUUACGUACA | -1.21 ± 0.1 | -0.544 ± 0.12 |
| ACACAGCAAUAUUACGGAGA | -4.21 ± 0.21 | -2.23 ± 0.14 |
| AUCGAGCAAUAUUACGAACA | -2.91 ± 0.24 | -1.27 ± 0.2 |
| AACAAGCAAUAUUACGUUGC | -2.83 ± 0.18 | -3.21 ± 0.32 |
| CUGGAGCAAUAUUACGUUUU | – | -3.48 ± 0.42 |
| CAGUAGCAAUAUUACGGUUA | -2.63 ± 0.14 | -2.69 ± 0.15 |
| CGCUAGCAAUAUUACGGAAA | -2.34 ± 0.41 | -1.49 ± 0.33 |
| CAUCAGCAAUAUUACGUAAG | -0.0494 ± 0.068 | 0.711 ± 0.092 |

| Sequence | self-splicing fitness (ln) (30 °C) | self-splicing fitness (ln) (37 °C) |
| --- | --- | --- |
| GCACAGCAAUAUUACGAUAC | -1.21 ± 0.074 | -0.488 ± 0.084 |
| CCGCAGCAAUAUUACGGUCG | -0.439 ± 0.053 | 0.0144 ± 0.066 |
| GGCGAGCAAUAUUACGUUAC | -3.24 ± 0.33 | -2.03 ± 0.32 |
| UUGUAGCAAUAUUACGGGUC | -3.03 ± 0.22 | -2.83 ± 0.4 |
| UGACAGCAAUAUUACGUCGG | -1.72 ± 0.094 | -0.734 ± 0.11 |
| CCCUAGCAAUAUUACGAUGG | -3.91 ± 0.2 | -1.79 ± 0.15 |
| AGCUAGCAAUAUUACGCUAA | -1.97 ± 0.18 | -1.21 ± 0.12 |
| GCGUAGCAAUAUUACGAACG | -2.48 ± 0.29 | -1.79 ± 0.27 |
| AACAAGCAAUAUUACGUGCU | -2.57 ± 0.16 | -1.51 ± 0.14 |
| CUCUAGCAAUAUUACGCAUC | – | -2.64 ± 0.36 |
| CCCGAGCAAUAUUACGCUAA | -2.14 ± 0.27 | -1.99 ± 0.2 |
| UGAGAGCAAUAUUACGUAUC | -0.611 ± 0.42 | -0.408 ± 0.47 |
| ACGCAGCAAUAUUACGACGG | -0.871 ± 0.051 | -0.191 ± 0.073 |
| CUAGAGCAAUAUUACGAGGG | -2.12 ± 0.19 | -1.73 ± 0.33 |
| CAAGAGCAAUAUUACGUAGA | -3.55 ± 0.17 | -2.76 ± 0.24 |
| GUGAAGCAAUAUUACGUUUG | -2.25 ± 0.09 | -1.85 ± 0.12 |
| AGGCAGCAAUAUUACGUUCA | -0.538 ± 0.08 | -0.117 ± 0.13 |
| CUUCAGCAAUAUUACGACGG | -2.16 ± 0.13 | -0.57 ± 0.23 |
| AGAGAGCAAUAUUACGGAUG | – | -1.4 ± 0.36 |
| UUUGAGCAAUAUUACGUGGG | -2.17 ± 0.47 | -1.39 ± 0.3 |
| GCAAAGCAAUAUUACGGAGU | -3.58 ± 0.17 | -2.42 ± 0.21 |
| ACUAAGCAAUAUUACGACAA | -1.63 ± 0.079 | -0.52 ± 0.1 |
| CGACAGCAAUAUUACGAAAU | -3.15 ± 0.12 | -3.06 ± 0.19 |
| CAUUAGCAAUAUUACGGCGU | -2.25 ± 0.13 | -0.905 ± 0.13 |
| CGGUAGCAAUAUUACGGAUG | -0.393 ± 0.063 | 0.221 ± 0.096 |
| GGUGAGCAAUAUUACGCCGA | -2.06 ± 0.46 | -1.46 ± 0.48 |

| Sequence | self-splicing fitness (ln) (30 °C) | self-splicing fitness (ln) (37 °C) |
| --- | --- | --- |
| GAGCAGCAAUAUUACGAAUG | -3.81 ± 0.2 | -1.94 ± 0.14 |
| UCCAAGCAAUAUUACGUGGA | -2.9 ± 0.17 | -3.47 ± 0.29 |
| CAUGAGCAAUAUUACGUUCU | -3.59 ± 0.27 | -3.11 ± 0.26 |
| CACUAGCAAUAUUACGUUUA | -4.15 ± 0.23 | -2.68 ± 0.17 |
| ACAUAGCAAUAUUACGGUGA | -0.929 ± 0.066 | -0.247 ± 0.086 |
| GGCGAGCAAUAUUACGCUUU | -2.76 ± 0.23 | -1.22 ± 0.19 |
| UUGAAGCAAUAUUACGUCUA | 0.0429 ± 0.11 | 0.627 ± 0.12 |
| ACAAAGCAAUAUUACGAAUC | -2.69 ± 0.19 | -1.66 ± 0.17 |
| GAGUAGCAAUAUUACGCGUG | -2.16 ± 0.08 | -0.531 ± 0.089 |
| CGAAAGCAAUAUUACGGUUG | -0.623 ± 0.057 | -0.494 ± 0.073 |
| UUAAAGCAAUAUUACGAUCC | -1.64 ± 0.18 | -0.49 ± 0.24 |
| UCAUAGCAAUAUUACGUUAG | -2.9 ± 0.25 | -1.66 ± 0.19 |
| CCCGAGCAAUAUUACGGGAA | -4.33 ± 0.29 | -2.39 ± 0.14 |
| GAAUAGCAAUAUUACGGGCA | -1.19 ± 0.083 | -1.2 ± 0.085 |
| GAUUAGCAAUAUUACGGUUU | -0.946 ± 0.083 | 0.231 ± 0.11 |
| CGACAGCAAUAUUACGGCUG | -3.32 ± 0.19 | -0.951 ± 0.16 |
| UCAAAGCAAUAUUACGUUCA | -0.821 ± 0.099 | -0.534 ± 0.11 |
| UGCCAGCAAUAUUACGUCAC | – | -2.01 ± 0.29 |
| UGCAAGCAAUAUUACGUACA | -0.594 ± 0.062 | 0.366 ± 0.092 |
| ACUCAGCAAUAUUACGUUAC | -4.33 ± 0.26 | -2.31 ± 0.18 |
| UCUGAGCAAUAUUACGAGCA | – | -2.23 ± 0.36 |
| GUCCAGCAAUAUUACGUCCA | -1.12 ± 0.077 | -0.579 ± 0.079 |
| ACUAAGCAAUAUUACGCUCU | -0.0344 ± 0.097 | -0.566 ± 0.1 |
| CCCCAGCAAUAUUACGCGCG | -2.69 ± 0.14 | -2.97 ± 0.22 |
| UUGUAGCAAUAUUACGUAUC | -4.12 ± 0.31 | -3.03 ± 0.31 |
